According to publication PMC4102620 (Journal of molecular biology, 2014):

Biological target: yeast E1 (Uba1) (yeast, UniProt P22515 1-1024, biotin on the C-terminal biotin ligase acceptor peptide)
Assay: fluorescent FL-UB-E1 band on non-reducing SDS-PAGE

B1: fluorescently labeled wild type ubiquitin (FL-UB) (natural protein)
chain: not shown
modifications: fluorescein (iodoacetamide) on the unique cysteine of the N-terminal tag
- binding result: binds
